Numbered stars: 1 amine (or outer) side, 2 acyl side, 3 side chain; on linkers, the order of the positions; unused ones are H or OH. Bridge positions count the residues as written; N and C are the ends. Square brackets hold non-standard residues; d marks the D form. Ends that are not written are not given here. * marks the point of attachment. TATA = O=C(CC[*:1])N1CN(C(=O)CC[*:2])CN(C(=O)CC[*:3])C1; Pent4ynoyl = C#CCCC(=O)*; PYA = not defined here
B1: BCY15663 (peptide)
peptide: ACYLPDYLCGDEYCAK
modifications: not fully specified; C-terminal D-Lys(PYA) joined to N-(amine-PEG2)-N-bis(PEG3-azide) linker carrying AF488
notes: homodimer of BCY15452; scaffold TATA
B2: BCY15452 (peptide)
peptide: ACYLPDYLCGDEYCAK
modifications: C-terminal D-Lys(PYA)
notes: scaffold TATA
B3: BCY15013 (peptide)
peptide: ACYLPDWLCGDEYCA[dK](Pent4ynoyl)-NH2
modifications: linker 2-9-14 via TATA; N-terminus assumed
SMILES: C#CCCC(=O)NCCCC[C@@H](NC(=O)[C@H](C)NC(=O)[C@@H]1CSCCC(=O)N2CN3CN(C2)C(=O)CCSC[C@H](NC(=O)[C@H](CC(C)C)NC(=O)[C@H](Cc2c[nH]c4ccccc24)NC(=O)[C@H](CC(=O)O)NC(=O)[C@@H]2CCCN2C(=O)[C@H](CC(C)C)NC(=O)[C@H](Cc2ccc(O)cc2)NC(=O)[C@@H](NC(=O)[C@H](C)N)CSCCC3=O)C(=O)NCC(=O)N[C@@H](CC(=O)O)C(=O)N[C@@H](CCC(=O)O)C(=O)N[C@@H](Cc2ccc(O)cc2)C(=O)N1)C(N)=O
notes: scaffold TATA
B4: BCY15686 (peptide)
peptide: ACDLTTHNCQWGICAK(PYA)
modifications: linker 2-9-14 via TATA (inferred); reading uncertain
notes: scaffold TATA
B5: BCY15687 (peptide)
peptide: ACNLQAPCMQTGKVCAK
modifications: C-terminal Lys(PYA)
notes: scaffold TATA

Experiments:
[1] = biological target: T1, human NKp46 on cells (CHO-K1/NKp46 cells; CD56+ NK cells of human PBMCs) (human, UniProt O76036 22-304); assay: Kd,app, flow cytometry, total CD56 population of human PBMCs
T1 construct: whole, on cells; also called NCR1; CD355
Experimental: Cells were resuspended in master mix cocktail (100 μL) and incubated at 4° C. for 30 minutes in the dark. Subsequently, cells were washed 3 times in 100 μL of stain buffer for 5 minutes at 500 rpm and supernatant was discarded.

[2] = biological target: T1, human NKp46 on cells (CHO-K1/NKp46 …); assay: Kd,app, flow cytometry CHO-K1/NKp46
Experimental: Plates were then incubated for 1 hour at room temperature in the dark. Post-incubation, the plates were centrifuged at 500 rpm for 5 minutes and supernatant discarded. Samples were then washed twice in 200 μL of 1× phosphate buffer saline (PBS; Gibco™ 10-010-023) at 500 rpm for 5 minutes. Cells were resuspended in 100 μL of PBS and transferred to a new 96-well V-bottom polypropylene plate (Greiner Bio-One 651201). Plates were centrifuged at 500 rpm for 5 minutes and supernatant discarded.
Preparation of samples for flow cytometry: Zombie Violet™ Fixable Viability Dye (BioLegend® 423113) was prepared as a 1:1000 dilution in PBS and 100 μL of viability dye was added to each well and incubated in the dark at 4° C. for 30 minutes. To ensure NKp46 expression, untreated CHO-K1/NKp46 cells were stained with either anti-human NKp46 or an isotype control. Antibody cocktails were prepared by diluting 1.5 μL of either, PE anti-human NKp46 (BioLegend® 331908; clone 9E2) or PE isotype control IgG1, K (BioLegend® 400112), per 100 μL of stain buffer (1×PBS supplemented with 2% FBS). Cells were resuspended in master mix cocktail (100 μL) and incubated at 4° C. for 30 minutes in the dark. Subsequently, cells were washed 3 times in 100 μL of stain buffer for 5 minutes at 500 rpm and supernatant was discarded. Cells resuspended in 200 μL of stain buffer were kept at 4° C. and in the dark until read by BD FACSCelesta™ flow cytometer.
The binding affinity of the bicyclic peptides were calculated using a four-parameter logistic regression using Prism GraphPad software.

[3] = biological target: T2, recombinant human NKp46-Fc fusion biotinylated via Avi-tag (human, UniProt O76036 22-255, limits assumed, biotin on Avi-tag); assay: SPR Method 1
T2 construct: also called biotinylated NKp46
Experimental: SPR experiments were performed to determine kₐ (M⁻¹s⁻¹), kd (s⁻¹), KD (nM) values (where measurable) of various bicyclic peptides to immobilised NKp46.
For analysis of peptide binding to NKp46, a Biacore 3000 instrument was used with a Cytiva Streptavidin chip. Capture of the protein (recombinant human NKp46-Fc fusion biotinylated via Avi-tag) was carried out at 25° C. with HBS-N (10 mM HEPES, 0.15 M NaCl, pH 7.4) as the running buffer and biotinylated NKp46 was captured to a level of 400-800 RU using a dilution of protein to 0.2 μM in buffer. Buffer was then changed to PBS/0.05% Tween 20 and a dilution series of the peptides was prepared in this buffer with a final DMSO concentration of 0.5% with a top peptide concentration of 100 nM-5000 nM and 6 further 2 or 3-fold dilutions. The SPR analysis was run at 25° C. and a flow rate of 50 μl/min with 60 seconds association and 200-400 seconds dissociation time. Data were corrected for DMSO excluded volume effects. All data were double-referenced for blank injections and reference surface using standard processing procedures and data processing and kinetic fitting were performed using Scrubber software, version 2.0c (BioLogic Software). Data were fitted using simple 1:1 binding model allowing for mass transport effects where appropriate.

[4] = biological target: T3, Human NKp46 Fc tag (Acro Biosystems, NC1-H5257) (human, UniProt O76036 22-255); assay: SPR Method 1 and/or 2
T3 construct: bought; also called Fc-tagged human NKp46
Method in brief: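 Fc-tagged human NKp46 captured on anti-human IgG surface (500–1000 RU); compounds run in PBS-P+ with 2% DMSO at 25 °C, 50 μL/min, 60 s association, 400 s dissociation. Double-referenced, DMSO-corrected; KD from steady-state 1:1 fit, kinetic constants from kinetic 1:1 fit where appropriate.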

T3 sequence (O76036 22-255 limits assumed): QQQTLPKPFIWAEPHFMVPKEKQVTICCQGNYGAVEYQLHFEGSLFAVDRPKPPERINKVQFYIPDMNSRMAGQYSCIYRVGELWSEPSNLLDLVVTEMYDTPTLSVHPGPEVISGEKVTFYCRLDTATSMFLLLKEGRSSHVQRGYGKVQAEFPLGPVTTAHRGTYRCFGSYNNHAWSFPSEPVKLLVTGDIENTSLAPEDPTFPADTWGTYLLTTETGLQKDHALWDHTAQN
T2 sequence (O76036 22-255 limits assumed): as above
T1 sequence (O76036 22-304): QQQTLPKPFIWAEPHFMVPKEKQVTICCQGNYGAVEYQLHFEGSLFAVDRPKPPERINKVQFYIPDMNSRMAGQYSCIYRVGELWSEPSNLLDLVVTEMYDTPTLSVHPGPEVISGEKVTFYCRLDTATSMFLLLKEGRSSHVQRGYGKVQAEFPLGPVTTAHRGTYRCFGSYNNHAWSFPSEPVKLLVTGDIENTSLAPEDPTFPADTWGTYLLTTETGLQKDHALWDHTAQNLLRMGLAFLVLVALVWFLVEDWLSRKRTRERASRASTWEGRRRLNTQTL

Row | Binder | Kd [1] [nM] | Kd [2] [nM] | Kd [3] [nM] | Kd [4] [nM]
1 | B1 | 0.028 | 0.3 | – | –
2 | B2 | – | – | 27 | 13
3 | B3 | – | – | 138 | 59
4 | B4 | – | – | 276 | –
5 | B5 | – | – | 960 | 783

— patent US20240108738A1 (Bicycle, published 2024)
